Assay results reported in the supplement of paper PMC10065799, “High-throughput profiling of sequence recognition by tyrosine kinases and SH2 domains using bacterial peptide display” (eLife, 2023).

Tests used:
AncSZ = assay: phosphorylation enrichment, bacterial display (enrichment ratio); higher = better substrate or ligand; peptides without Tyr show the background
EPHB1 = EPHB1 (UniProt P54762); assay: as above
EPHB2 = EPHB2 (UniProt P29323); assay: as above
FGFR1 = FGFR1 (UniProt P11362); assay: as above
FGFR1, sequence (P11362 whole entry, looked up): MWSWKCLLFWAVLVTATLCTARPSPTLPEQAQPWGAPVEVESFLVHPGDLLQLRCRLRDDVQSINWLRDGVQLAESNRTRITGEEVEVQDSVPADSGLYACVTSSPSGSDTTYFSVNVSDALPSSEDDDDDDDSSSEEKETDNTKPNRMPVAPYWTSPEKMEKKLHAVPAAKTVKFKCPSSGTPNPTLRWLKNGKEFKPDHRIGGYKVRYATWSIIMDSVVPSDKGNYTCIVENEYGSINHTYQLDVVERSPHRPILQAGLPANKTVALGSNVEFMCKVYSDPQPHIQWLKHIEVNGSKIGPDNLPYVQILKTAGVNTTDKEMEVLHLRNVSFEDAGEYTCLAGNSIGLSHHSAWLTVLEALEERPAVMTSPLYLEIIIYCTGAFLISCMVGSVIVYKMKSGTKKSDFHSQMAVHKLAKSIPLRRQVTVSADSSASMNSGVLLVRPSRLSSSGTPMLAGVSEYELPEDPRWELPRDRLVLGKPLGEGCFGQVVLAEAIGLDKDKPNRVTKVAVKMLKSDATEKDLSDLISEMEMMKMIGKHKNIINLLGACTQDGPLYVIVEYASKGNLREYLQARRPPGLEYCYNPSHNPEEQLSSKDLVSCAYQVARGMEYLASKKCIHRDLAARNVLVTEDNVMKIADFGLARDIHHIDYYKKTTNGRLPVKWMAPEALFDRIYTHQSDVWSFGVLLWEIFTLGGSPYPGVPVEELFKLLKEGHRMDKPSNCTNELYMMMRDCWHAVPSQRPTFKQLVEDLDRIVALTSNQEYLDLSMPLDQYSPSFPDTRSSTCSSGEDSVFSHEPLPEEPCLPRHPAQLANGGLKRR

FGFR3 = FGFR3 (UniProt P22607); assay: as above
FGFR3, sequence (P22607 whole entry, looked up): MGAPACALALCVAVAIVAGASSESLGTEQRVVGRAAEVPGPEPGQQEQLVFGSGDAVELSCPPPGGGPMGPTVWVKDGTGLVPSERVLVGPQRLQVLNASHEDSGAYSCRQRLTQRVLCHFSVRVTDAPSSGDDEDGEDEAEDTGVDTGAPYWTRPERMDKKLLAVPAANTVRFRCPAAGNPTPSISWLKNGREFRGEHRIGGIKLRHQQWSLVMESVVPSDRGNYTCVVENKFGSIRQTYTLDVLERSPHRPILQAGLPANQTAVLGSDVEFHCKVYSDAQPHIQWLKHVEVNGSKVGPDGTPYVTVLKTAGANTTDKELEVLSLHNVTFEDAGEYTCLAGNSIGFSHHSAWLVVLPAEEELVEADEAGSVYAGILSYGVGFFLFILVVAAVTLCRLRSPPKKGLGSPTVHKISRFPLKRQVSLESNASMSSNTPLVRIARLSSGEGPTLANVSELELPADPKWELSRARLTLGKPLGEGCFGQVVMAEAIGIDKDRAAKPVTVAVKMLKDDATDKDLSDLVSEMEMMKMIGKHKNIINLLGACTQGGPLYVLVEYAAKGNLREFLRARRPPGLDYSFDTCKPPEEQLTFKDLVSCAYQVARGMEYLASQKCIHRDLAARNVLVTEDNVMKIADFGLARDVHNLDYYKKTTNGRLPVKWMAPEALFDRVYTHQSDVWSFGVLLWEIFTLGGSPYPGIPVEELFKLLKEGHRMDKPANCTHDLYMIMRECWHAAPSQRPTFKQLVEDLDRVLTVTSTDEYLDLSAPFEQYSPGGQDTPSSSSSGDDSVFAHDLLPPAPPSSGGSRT

Fer (mouse) = assay: as above
Fes = Fes (UniProt P07332); assay: as above
Fes, sequence (P07332 whole entry, looked up): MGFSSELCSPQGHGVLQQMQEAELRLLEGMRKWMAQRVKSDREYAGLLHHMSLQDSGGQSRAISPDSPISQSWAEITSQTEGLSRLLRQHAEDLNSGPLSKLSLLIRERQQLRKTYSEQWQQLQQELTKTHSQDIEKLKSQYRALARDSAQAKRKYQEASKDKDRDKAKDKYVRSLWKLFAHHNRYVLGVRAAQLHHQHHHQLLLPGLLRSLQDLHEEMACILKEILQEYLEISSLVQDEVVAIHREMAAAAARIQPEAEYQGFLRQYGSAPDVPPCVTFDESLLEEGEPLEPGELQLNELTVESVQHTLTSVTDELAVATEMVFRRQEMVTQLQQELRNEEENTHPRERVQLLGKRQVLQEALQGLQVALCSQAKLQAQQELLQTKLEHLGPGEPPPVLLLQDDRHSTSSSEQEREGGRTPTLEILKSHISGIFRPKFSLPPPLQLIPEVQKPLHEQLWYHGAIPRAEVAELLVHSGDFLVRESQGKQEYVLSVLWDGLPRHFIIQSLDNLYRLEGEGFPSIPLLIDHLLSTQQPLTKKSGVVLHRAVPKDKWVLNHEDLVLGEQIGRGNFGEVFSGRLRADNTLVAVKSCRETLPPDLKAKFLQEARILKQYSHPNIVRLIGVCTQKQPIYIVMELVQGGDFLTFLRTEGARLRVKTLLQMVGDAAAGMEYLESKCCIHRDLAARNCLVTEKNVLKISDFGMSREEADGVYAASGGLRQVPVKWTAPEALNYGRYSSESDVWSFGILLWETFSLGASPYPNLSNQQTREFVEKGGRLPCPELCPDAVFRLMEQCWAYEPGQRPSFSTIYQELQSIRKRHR

Fyn = Fyn (UniProt P06241); assay: as above
Fyn, sequence (P06241 whole entry, looked up): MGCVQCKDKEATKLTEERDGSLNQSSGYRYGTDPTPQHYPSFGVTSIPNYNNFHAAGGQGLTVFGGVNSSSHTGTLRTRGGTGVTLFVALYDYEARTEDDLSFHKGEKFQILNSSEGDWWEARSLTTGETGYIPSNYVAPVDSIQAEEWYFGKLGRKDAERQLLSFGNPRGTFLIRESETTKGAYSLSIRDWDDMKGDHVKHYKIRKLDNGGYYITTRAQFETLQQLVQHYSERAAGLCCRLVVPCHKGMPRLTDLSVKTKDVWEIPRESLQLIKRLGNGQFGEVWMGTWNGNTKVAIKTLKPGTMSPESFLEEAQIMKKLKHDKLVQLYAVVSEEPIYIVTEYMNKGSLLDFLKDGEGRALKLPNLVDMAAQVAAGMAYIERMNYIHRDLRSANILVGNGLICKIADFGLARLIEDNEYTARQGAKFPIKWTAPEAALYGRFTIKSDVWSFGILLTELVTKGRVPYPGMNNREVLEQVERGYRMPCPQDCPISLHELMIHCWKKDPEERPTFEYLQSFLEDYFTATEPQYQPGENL

Hck = Hck (UniProt P08631); assay: as above
Hck, sequence (P08631 whole entry, looked up): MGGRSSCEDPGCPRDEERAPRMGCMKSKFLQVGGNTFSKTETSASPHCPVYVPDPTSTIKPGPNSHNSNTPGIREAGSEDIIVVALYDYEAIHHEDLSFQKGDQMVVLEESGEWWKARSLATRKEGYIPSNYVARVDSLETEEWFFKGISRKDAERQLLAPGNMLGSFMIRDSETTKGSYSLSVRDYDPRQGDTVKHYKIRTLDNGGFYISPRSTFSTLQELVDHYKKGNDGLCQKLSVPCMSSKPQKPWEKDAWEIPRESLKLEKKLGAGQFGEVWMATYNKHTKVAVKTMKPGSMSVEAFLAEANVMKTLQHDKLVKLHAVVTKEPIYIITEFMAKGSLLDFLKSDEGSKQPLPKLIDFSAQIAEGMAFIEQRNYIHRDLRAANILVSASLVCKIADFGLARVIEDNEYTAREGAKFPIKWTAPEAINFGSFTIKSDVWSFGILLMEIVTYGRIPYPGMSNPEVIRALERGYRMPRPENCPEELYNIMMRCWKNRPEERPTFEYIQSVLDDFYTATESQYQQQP

Jak2 = Jak2 (UniProt O60674); assay: as above
MERTK = MERTK (UniProt Q12866); assay: as above
MERTK, sequence (Q12866 whole entry, looked up): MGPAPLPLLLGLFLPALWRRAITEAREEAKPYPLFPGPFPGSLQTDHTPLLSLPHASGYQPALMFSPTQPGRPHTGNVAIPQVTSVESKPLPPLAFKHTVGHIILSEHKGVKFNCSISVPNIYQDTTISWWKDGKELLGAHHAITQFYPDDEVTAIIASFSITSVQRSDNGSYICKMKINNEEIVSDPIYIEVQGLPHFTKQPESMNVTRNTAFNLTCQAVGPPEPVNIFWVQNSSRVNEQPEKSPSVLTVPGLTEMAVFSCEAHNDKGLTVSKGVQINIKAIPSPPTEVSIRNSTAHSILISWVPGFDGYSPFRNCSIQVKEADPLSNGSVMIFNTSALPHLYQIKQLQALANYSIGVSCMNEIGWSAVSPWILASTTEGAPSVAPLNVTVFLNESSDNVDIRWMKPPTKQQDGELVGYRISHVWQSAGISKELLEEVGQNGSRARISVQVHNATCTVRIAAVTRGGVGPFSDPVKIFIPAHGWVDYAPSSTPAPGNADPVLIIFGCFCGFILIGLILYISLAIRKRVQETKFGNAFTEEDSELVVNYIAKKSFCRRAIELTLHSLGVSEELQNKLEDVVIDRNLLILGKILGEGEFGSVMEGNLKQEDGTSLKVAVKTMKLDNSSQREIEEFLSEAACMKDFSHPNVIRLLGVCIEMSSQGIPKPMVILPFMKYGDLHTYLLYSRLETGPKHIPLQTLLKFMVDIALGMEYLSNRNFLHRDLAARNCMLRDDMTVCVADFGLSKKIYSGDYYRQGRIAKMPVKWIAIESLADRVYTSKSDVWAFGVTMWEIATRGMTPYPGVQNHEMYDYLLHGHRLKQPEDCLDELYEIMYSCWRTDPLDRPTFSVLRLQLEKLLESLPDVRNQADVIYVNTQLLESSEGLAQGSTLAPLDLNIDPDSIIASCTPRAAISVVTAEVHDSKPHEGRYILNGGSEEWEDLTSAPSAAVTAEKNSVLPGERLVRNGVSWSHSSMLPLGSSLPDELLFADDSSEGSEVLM

c-Abl (mouse) = assay: as above
c-Src = assay: as above
Grb2 SH2 = Grb2 SH2 (UniProt P62993); assay: SH2 binding enrichment of the phosphorylated peptide, bacterial display (enrichment ratio); higher = better substrate or ligand; peptides without Tyr show the background
SHP2-C SH2 = assay: as above
c-Src SH2 = assay: as above
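For SH2 binding enrichment of the phosphorylated peptide, bacterial display in this document: peptide library displayed on the E. coli surface as eCPX fusions, selected cells deep-sequenced, score is each peptide's frequency after selection divided by its frequency in the input.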
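For phosphorylation enrichment, bacterial display in this document: 11-residue human phosphosite peptides and single-mutation variants displayed on the E. coli surface, counted by deep sequencing, each peptide's frequency after selection divided by its frequency in the unselected input library; frequency after pTyr selection over input frequency; kinase dosed for 20-30% of maximal phosphorylation in three min.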

Row | Sequence | SH2 binding enrichment (Grb2 SH2) | SH2 binding enrichment (SHP2-C SH2) | SH2 binding enrichment (c-Src SH2) | phosphorylation enrichment (AncSZ) | phosphorylation enrichment (EPHB1) | phosphorylation enrichment (EPHB2) | phosphorylation enrichment (FGFR1) | phosphorylation enrichment (FGFR3) | phosphorylation enrichment (Fer (mouse)) | phosphorylation enrichment (Fes) | phosphorylation enrichment (Fyn) | phosphorylation enrichment (Hck) | phosphorylation enrichment (Jak2) | phosphorylation enrichment (MERTK) | phosphorylation enrichment (c-Abl (mouse)) | phosphorylation enrichment (c-Src)
1 | DDEENYENVPR [FCRL3_Y722] | 1.04 | 0.9 | 0.699 | 1.3 | 0.619 | 0.572 | 0.567 | 0.773 | 0.57 | 1.19 | 0.555 | 0.589 | 1.11 | 0.45 | 0.786 | 0.428
2 | TFWKKYCTFWK [CCDC70_Y125_R126C] | 1.1 | 0.594 | 0.517 | 0.966 | 0.381 | 0.425 | 0.438 | 0.619 | 0.364 | 0.794 | 0.381 | 0.38 | 0.844 | 0.402 | 0.752 | 0.395
3 | LDPMVYMNDKS [PTK2B_Y834] | 2.36 | 0.792 | 1.01 | 1.09 | 0.727 | 0.595 | 0.727 | 0.586 | 0.678 | 1.28 | 0.55 | 0.386 | 1.25 | 0.648 | 0.843 | 0.669
4 | NTCNRYCRDEI [ITGB3_Y660] | 0.938 | 0.658 | 0.808 | 0.794 | 0.567 | 0.427 | 0.492 | 0.486 | 0.43 | 0.777 | 0.485 | 0.407 | 0.714 | 0.535 | 0.596 | 0.5
5 | SNNFIYKTLGV [FAM83B_Y639_YF] | 0.785 | 0.45 | 0.405 | 0.637 | 0.45 | 0.485 | 0.484 | 0.555 | 0.421 | 0.734 | 0.506 | 0.572 | 0.639 | 0.394 | 0.631 | 0.478
6 | QRRYVYYYSYL [PTEN_Y176] | 1.07 | 3.88 | 1 | 1.88 | 1.85 | 1.83 | 6.01 | 4.17 | 0.987 | 1.32 | 3.65 | 3.63 | 5.95 | 9.64 | 1.09 | 4.21
7 | GIADDYDKKKP [EIF1_Y54_L59P] | 0.76 | 0.614 | 0.895 | 1.01 | 0.425 | 0.502 | 0.501 | 0.636 | 0.389 | 0.998 | 0.418 | 0.381 | 0.909 | 0.378 | 0.648 | 0.436
8 | PSQRCYVYYYS [PTEN_Y174_R173C] | 0.825 | 0.645 | 0.286 | 2.35 | 0.931 | 0.556 | 1.41 | 1.8 | 0.807 | 2.28 | 1.09 | 1.03 | 2.59 | 2.02 | 1.77 | 3.16
9 | KKMEVYQSIAD [MYBPC3_Y548_L545M] | 0.775 | 0.576 | 1.28 | 0.927 | 0.745 | 0.627 | 0.719 | 0.681 | 0.508 | 1.04 | 0.943 | 1.47 | 1.04 | 0.451 | 0.764 | 0.91
10 | QEGPEYWDGET [HLA-A_Y83_Q86G] | 0.957 | 0.662 | 0.476 | 1.73 | 0.739 | 0.786 | 0.839 | 1.25 | 0.788 | 1.71 | 0.712 | 0.712 | 1.67 | 0.627 | 0.964 | 0.554
11 | FSPGSYERETF [NF1_Y2192] | 0.776 | 0.612 | 0.495 | 0.883 | 0.526 | 0.548 | 0.483 | 0.535 | 0.427 | 0.856 | 0.429 | 0.447 | 0.763 | 0.429 | 0.702 | 0.539
12 | KKFVPYFDLFM [IPO5_Y530_E525K_YF] | 1.58 | 0.831 | 0.878 | 1.29 | 0.722 | 0.707 | 0.79 | 0.898 | 0.53 | 1.35 | 0.479 | 0.571 | 1.14 | 0.645 | 0.773 | 0.526
13 | RGYRVCYTPDS [PTPRF_Y450_Y450C] | 0.534 | 0.687 | 0.41 | 1.32 | 0.892 | 0.909 | 0.784 | 1.36 | 0.71 | 1.61 | 0.602 | 0.618 | 1.86 | 0.634 | 1.16 | 0.985
14 | AVRVFYRKCPH [EPHB2_Y194_R199H] | 0.646 | 0.497 | 0.509 | 1.22 | 0.588 | 0.711 | 0.563 | 0.668 | 0.452 | 1.08 | 0.496 | 0.604 | 0.804 | 0.485 | 1.14 | 0.424
15 | HSFQCYGQNEA [ENTPD3_Y262_R264Q] | 0.968 | 0.62 | 0.596 | 0.996 | 0.551 | 0.452 | 0.604 | 0.71 | 0.382 | 1 | 0.535 | 0.701 | 1.21 | 0.422 | 0.793 | 0.441
16 | WRVIGYHVVVW [ATP13A2_Y50] | 1.08 | 0.915 | 0.727 | 1.21 | 0.695 | 0.692 | 0.551 | 0.828 | 0.587 | 1.25 | 0.444 | 0.568 | 1.19 | 0.417 | 0.903 | 0.501
17 | VEQIHYIGQNE [HMOX2_Y140_R137Q] | 0.834 | 0.582 | 0.465 | 0.665 | 0.445 | 0.396 | 0.483 | 0.612 | 0.424 | 0.663 | 0.462 | 0.461 | 0.547 | 0.408 | 0.423 | 0.452
18 | LGLDEYLDKLK [FMNL2_Y352] | 0.78 | 0.662 | 0.588 | 1.47 | 0.716 | 0.816 | 0.536 | 0.971 | 0.933 | 1.27 | 0.394 | 0.587 | 1.71 | 0.569 | 0.982 | 0.375
19 | HNGVSYFINLC [IGF2R_Y2024_YF] | 0.755 | 0.573 | 0.439 | 1.57 | 1.17 | 0.822 | 0.783 | 0.997 | 0.587 | 2.08 | 0.659 | 0.618 | 2.2 | 0.613 | 1.24 | 0.668
20 | FITVGYVDDTQ [HLA-B_Y51_S48T] | 0.779 | 1.1 | 0.736 | 0.999 | 0.681 | 0.611 | 0.658 | 0.741 | 0.528 | 1.21 | 0.529 | 0.517 | 0.877 | 0.482 | 0.898 | 0.432
21 | LHRHAYPEQQQ [DPPA2_Y127_R131Q] | 1.02 | 0.839 | 0.906 | 0.726 | 0.837 | 0.811 | 1.07 | 0.828 | 0.743 | 0.901 | 0.824 | 0.474 | 0.645 | 0.401 | 0.716 | 0.559
22 | TCRPPYYHRNC [HGD_Y333_F329C] | 1.76 | 3.31 | 1.01 | 0.243 |  |  | 0.398 | 0.493 | 0.233 | 0.713 | 0.093 | 0.218 | 0.162 | 0.235 | 0.197 | 0.251

Second part, led by results:

Row | SH2 binding enrichment (Grb2 SH2) | SH2 binding enrichment (SHP2-C SH2) | SH2 binding enrichment (c-Src SH2) | Sequence | phosphorylation enrichment (AncSZ) | phosphorylation enrichment (EPHB1) | phosphorylation enrichment (EPHB2) | phosphorylation enrichment (FGFR1) | phosphorylation enrichment (FGFR3) | phosphorylation enrichment (Fer (mouse)) | phosphorylation enrichment (Fes) | phosphorylation enrichment (Fyn) | phosphorylation enrichment (Hck) | phosphorylation enrichment (Jak2) | phosphorylation enrichment (MERTK) | phosphorylation enrichment (c-Abl (mouse)) | phosphorylation enrichment (c-Src)
23 | 1.01 | 1.37 | 0.625 | QFQLKYSETPF [SIX6OS1_Y129_YF] | 1.7 | 0.957 | 1.12 | 0.982 | 1.11 | 0.789 | 1.84 | 0.811 | 0.855 | 2.17 | 1.24 | 1.39 | 0.812
24 | 0.885 | 1.62 | 5.53 | FLRTGYSVPFG [TGM1_Y370_YF] | 0.875 | 0.523 | 0.515 | 0.504 | 0.632 | 0.466 | 0.955 | 0.729 | 0.461 | 0.929 | 0.561 | 0.945 | 0.53
25 | 0.777 | 0.793 | 0.486 | LEAVSYSSRFA [RNLS_Y190_YF] | 0.718 | 0.369 | 0.359 | 0.432 | 0.496 | 0.408 | 0.773 | 0.474 | 0.463 | 0.564 | 0.399 | 0.596 | 0.435
26 | 0.563 | 0.629 | 1.79 | FFRNVYHLASV [RBL1_Y796_K794N_YF] | 0.803 | 0.509 | 0.515 | 0.486 | 0.532 | 0.403 | 0.763 | 1.25 | 0.596 | 0.575 | 0.404 | 0.51 | 0.862
27 | 0.584 | 0.821 | 0.392 | GTQGSYLLSRK [UGT3A1_Y123_C121G] | 0.523 | 0.48 | 0.411 | 0.366 | 0.355 | 0.392 | 0.56 | 0.4 | 0.49 | 0.615 | 0.433 | 0.606 | 0.555
28 | 2.15 | 1.62 | 1.5 | VLALWYYYLTH [ZDHHC23_Y127] | 1.45 | 0.81 | 0.74 | 6.87 | 5.65 | 0.724 | 1.64 | 0.646 | 0.783 | 2.57 | 2.99 | 0.964 | 1.24
29 | 0.899 | 1.1 | 0.896 | LLKKIYLMLDN [STAT1_Y203_M202I] | 1.85 | 1.15 | 0.817 | 1.08 | 1.31 | 0.67 | 2.38 | 0.562 | 0.85 | 2.05 | 0.822 | 1.85 | 0.977
30 | 0.787 | 0.604 | 0.401 | TDKLFYIFTPG [SLC27A4_Y243_S247P_YF] | 1.36 | 0.776 | 0.583 | 0.91 | 1.11 | 0.544 | 1.49 | 0.392 | 0.607 | 1.65 | 1.72 | 0.873 | 0.556
31 | 0.878 | 0.717 | 0.61 | YEREQYADRTR [RBM4_Y355_A359T] | 0.897 | 0.343 | 0.419 | 0.566 | 0.472 | 0.494 | 0.706 | 0.439 | 0.469 | 0.603 | 0.448 | 0.55 | 0.443
32 | 1.04 | 0.666 | 0.401 | HQNGTYGLHQD [SGSH_Y89_M88T] | 0.615 | 0.418 | 0.541 | 0.71 | 0.727 | 0.431 | 0.764 | 0.61 | 0.753 | 0.459 | 0.414 | 0.555 | 0.599
33 | 0.708 | 0.766 | 1.12 | PLQKTYNYNVL [SLC4A1_Y553] | 0.872 | 0.66 | 0.689 | 0.711 | 0.691 | 0.628 | 1.08 | 0.495 | 0.596 | 0.986 | 0.43 | 0.881 | 0.565
